Key:
[1] = biological target: T1, activin A (UniProt P08476 311-426); assay: cell-based or functional assay
T1 sequence (looked up): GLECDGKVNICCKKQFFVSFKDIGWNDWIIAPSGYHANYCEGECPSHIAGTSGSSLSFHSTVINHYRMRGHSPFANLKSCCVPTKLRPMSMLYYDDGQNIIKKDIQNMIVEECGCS

[2] = biological target: T2, GDF11 (UniProt O95390 299-407); assay: cell-based or functional assay
T2 sequence (looked up): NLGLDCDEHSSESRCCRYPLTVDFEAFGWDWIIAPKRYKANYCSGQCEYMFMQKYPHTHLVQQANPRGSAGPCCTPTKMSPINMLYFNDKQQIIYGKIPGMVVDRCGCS

[3] = biological target: T1, activin A; assay: binding assay, method not stated
[4] = biological target: T2, GDF11; assay: binding assay, method not stated

B1: FST(278)-IgG2 (Fc fusion)
chain: GNCWLRQAKNGRCQVLYKTELSKEECCSTGRLSTSWTEEDVNDNTLFKWMIFNGGAPNCIPCKETCENVDCGPGKKCRMNKKNKPRCVCAPDCSNITWKGPVCGLDGKTYRNECALLKARCKEQPELEVQYQGRCKKTCRDVFCPGSSTCVVDQTNNAYCVTCNRICPEPASSEQYLCGNDGVTYSSACHLRKATCLLGRSIGLAYEGKCIKAKSCEDIQCTGGKKCLWDFKVGRGRCSLCDELCPDSKSDEPVCASDNATYASECAMKEAACSSGVLTGGGVECPPCPAPPVAGPSVFLFPPKPKDTLMISRTPEVTCVVVDVSHEDPEVQFNWYVDGVEVHNAKTKPREEQFNSTFRVVSVLTVVHQDWLNGKEYKCKVSNKGLPAPIEKTISKTKGQPREPQVYTLPPSREEMTKNQVSLTCLVKGFYPSDIAVEWESNGQPENNYKTTPPMLDSDGSFFLYSKLTVDKSRWQQGNVFSCSVMHEALHNHYTQKSLSLSPGK
IC50 (ng/ml), A-204 Reporter Gene Assay [1]: 521 ng/mL
IC50 (ng/ml), A-204 Reporter Gene Assay [2]: 91 ng/mL

B2: FST(303)-IgG2 (Fc fusion)
chain: GNCWLRQAKNGRCQVLYKTELSKEECCSTGRLSTSWTEEDVNDNTLFKWMIFNGGAPNCIPCKETCENVDCGPGKKCRMNKKNKPRCVCAPDCSNITWKGPVCGLDGKTYRNECALLKARCKEQPELEVQYQGRCKKTCRDVFCPGSSTCVVDQTNNAYCVTCNRICPEPASSEQYLCGNDGVTYSSACHLRKATCLLGRSIGLAYEGKCIKAKSCEDIQCTGGKKCLWDFKVGRGRCSLCDELCPDSKSDEPVCASDNATYASECAMKEAACSSGVLLEVKHSGSCNSISEDTEEEEEDEDQTGGGVECPPCPAPPVAGPSVFLFPPKPKDTLMISRTPEVTCVVVDVSHEDPEVQFNWYVDGVEVHNAKTKPREEQFNSTFRVVSVLTVVHQDWLNGKEYKCKVSNKGLPAPIEKTISKTKGQPREPQVYTLPPSREEMTKNQVSLTCLVKGFYPSDIAVEWESNGQPENNYKTTPPMLDSDGSFFLYSKLTVDKSRWQQGNVFSCSVMHEALHNHYTQKSLSLSPGK
IC50 (ng/ml), A-204 Reporter Gene Assay [1]: 2 ng/mL
IC50 (ng/ml), A-204 Reporter Gene Assay [2]: 18 ng/mL

B3: FST(284)-IgG2 (Fc fusion)
chain: GNCWLRQAKNGRCQVLYKTELSKEECCSTGRLSTSWTEEDVNDNTLFKWMIFNGGAPNCIPCKETCENVDCGPGKKCRMNKKNKPRCVCAPDCSNITWKGPVCGLDGKTYRNECALLKARCKEQPELEVQYQGRCKKTCRDVFCPGSSTCVVDQTNNAYCVTCNRICPEPASSEQYLCGNDGVTYSSACHLRKATCLLGRSIGLAYEGKCIKAKSCEDIQCTGGKKCLWDFKVGRGRCSLCDELCPDSKSDEPVCASDNATYASECAMKEAACSSGVLLEVKHSTGGGVECPPCPAPPVAGPSVFLFPPKPKDTLMISRTPEVTCVVVDVSHEDPEVQFNWYVDGVEVHNAKTKPREEQFNSTFRVVSVLTVVHQDWLNGKEYKCKVSNKGLPAPIEKTISKTKGQPREPQVYTLPPSREEMTKNQVSLTCLVKGFYPSDIAVEWESNGQPENNYKTTPPMLDSDGSFFLYSKLTVDKSRWQQGNVFSCSVMHEALHNHYTQKSLSLSPGK
IC50 (ng/ml), A-204 Reporter Gene Assay [1]: 369 ng/mL
IC50 (ng/ml), A-204 Reporter Gene Assay [2]: 123 ng/mL

B4: FST(315)-IgG2 (Fc fusion)
chain: GNCWLRQAKNGRCQVLYKTELSKEECCSTGRLSTSWTEEDVNDNTLFKWMIFNGGAPNCIPCKETCENVDCGPGKKCRMNKKNKPRCVCAPDCSNITWKGPVCGLDGKTYRNECALLKARCKEQPELEVQYQGRCKKTCRDVFCPGSSTCVVDQTNNAYCVTCNRICPEPASSEQYLCGNDGVTYSSACHLRKATCLLGRSIGLAYEGKCIKAKSCEDIQCTGGKKCLWDFKVGRGRCSLCDELCPDSKSDEPVCASDNATYASECAMKEAACSSGVLLEVKHSGSCNSISEDTEEEEEDEDQDYSFPISSILEWTGGGVECPPCPAPPVAGPSVFLFPPKPKDTLMISRTPEVTCVVVDVSHEDPEVQFNWYVDGVEVHNAKTKPREEQFNSTFRVVSVLTVVHQDWLNGKEYKCKVSNKGLPAPIEKTISKTKGQPREPQVYTLPPSREEMTKNQVSLTCLVKGFYPSDIAVEWESNGQPENNYKTTPPMLDSDGSFFLYSKLTVDKSRWQQGNVFSCSVMHEALHNHYTQKSLSLSPGK
notes: Expressed with the follistatin leader in HEK-293 or CHO cells; also called mature FST(315)-IgG2
Kd [3]: < 0.01 nM
Kd [4]: < 0.01 nM
IC50 (ng/ml), A-204 Reporter Gene Assay [1]: 10 ng/mL
IC50 (ng/ml), A-204 Reporter Gene Assay [2]: 15 ng/mL

B5: FST(288)-IgG2 (Fc fusion)
chain: GNCWLRQAKNGRCQVLYKTELSKEECCSTGRLSTSWTEEDVNDNTLFKWMIFNGGAPNCIPCKETCENVDCGPGKKCRMNKKNKPRCVCAPDCSNITWKGPVCGLDGKTYRNECALLKARCKEQPELEVQYQGRCKKTCRDVFCPGSSTCVVDQTNNAYCVTCNRICPEPASSEQYLCGNDGVTYSSACHLRKATCLLGRSIGLAYEGKCIKAKSCEDIQCTGGKKCLWDFKVGRGRCSLCDELCPDSKSDEPVCASDNATYASECAMKEAACSSGVLLEVKHSGSCNTGGGVECPPCPAPPVAGPSVFLFPPKPKDTLMISRTPEVTCVVVDVSHEDPEVQFNWYVDGVEVHNAKTKPREEQFNSTFRVVSVLTVVHQDWLNGKEYKCKVSNKGLPAPIEKTISKTKGQPREPQVYTLPPSREEMTKNQVSLTCLVKGFYPSDIAVEWESNGQPENNYKTTPPMLDSDGSFFLYSKLTVDKSRWQQGNVFSCSVMHEALHNHYTQKSLSLSPGK
notes: Expressed with the follistatin leader in HEK-293 or CHO cells; also called mature FST(288)-IgG2
Kd [3]: < 0.01 nM
Kd [4]: < 0.01 nM
IC50 (ng/ml), A-204 Reporter Gene Assay [1]: 30 ng/mL
IC50 (ng/ml), A-204 Reporter Gene Assay [2]: 41 ng/mL

B6: FST(291)-IgG2 (Fc fusion)
chain: GNCWLRQAKNGRCQVLYKTELSKEECCSTGRLSTSWTEEDVNDNTLFKWMIFNGGAPNCIPCKETCENVDCGPGKKCRMNKKNKPRCVCAPDCSNITWKGPVCGLDGKTYRNECALLKARCKEQPELEVQYQGRCKKTCRDVFCPGSSTCVVDQTNNAYCVTCNRICPEPASSEQYLCGNDGVTYSSACHLRKATCLLGRSIGLAYEGKCIKAKSCEDIQCTGGKKCLWDFKVGRGRCSLCDELCPDSKSDEPVCASDNATYASECAMKEAACSSGVLLEVKHSGSCNSISTGGGVECPPCPAPPVAGPSVFLFPPKPKDTLMISRTPEVTCVVVDVSHEDPEVQFNWYVDGVEVHNAKTKPREEQFNSTFRVVSVLTVVHQDWLNGKEYKCKVSNKGLPAPIEKTISKTKGQPREPQVYTLPPSREEMTKNQVSLTCLVKGFYPSDIAVEWESNGQPENNYKTTPPMLDSDGSFFLYSKLTVDKSRWQQGNVFSCSVMHEALHNHYTQKSLSLSPGK
notes: Expressed with the follistatin leader in HEK-293 or CHO cells; also called mature FST(291)-IgG2
Kd [3]: < 0.01 nM
Kd [4]: < 0.01 nM
IC50 (ng/ml), A-204 Reporter Gene Assay [1]: 20 ng/mL
IC50 (ng/ml), A-204 Reporter Gene Assay [2]: 26 ng/mL

— patent US20160185836A1 (published 2016)
